Laboratory results taken from patent EP1808439A2.

Molecular target: epiligrin-ECM^t (trypsin-treated HFK-ECM) (human) (UniProt Q16787)
Assay: cell-based or functional assay

Chain of UniProt Q16787 (Q16787 other isoform, or with tags, fused parts or gaps): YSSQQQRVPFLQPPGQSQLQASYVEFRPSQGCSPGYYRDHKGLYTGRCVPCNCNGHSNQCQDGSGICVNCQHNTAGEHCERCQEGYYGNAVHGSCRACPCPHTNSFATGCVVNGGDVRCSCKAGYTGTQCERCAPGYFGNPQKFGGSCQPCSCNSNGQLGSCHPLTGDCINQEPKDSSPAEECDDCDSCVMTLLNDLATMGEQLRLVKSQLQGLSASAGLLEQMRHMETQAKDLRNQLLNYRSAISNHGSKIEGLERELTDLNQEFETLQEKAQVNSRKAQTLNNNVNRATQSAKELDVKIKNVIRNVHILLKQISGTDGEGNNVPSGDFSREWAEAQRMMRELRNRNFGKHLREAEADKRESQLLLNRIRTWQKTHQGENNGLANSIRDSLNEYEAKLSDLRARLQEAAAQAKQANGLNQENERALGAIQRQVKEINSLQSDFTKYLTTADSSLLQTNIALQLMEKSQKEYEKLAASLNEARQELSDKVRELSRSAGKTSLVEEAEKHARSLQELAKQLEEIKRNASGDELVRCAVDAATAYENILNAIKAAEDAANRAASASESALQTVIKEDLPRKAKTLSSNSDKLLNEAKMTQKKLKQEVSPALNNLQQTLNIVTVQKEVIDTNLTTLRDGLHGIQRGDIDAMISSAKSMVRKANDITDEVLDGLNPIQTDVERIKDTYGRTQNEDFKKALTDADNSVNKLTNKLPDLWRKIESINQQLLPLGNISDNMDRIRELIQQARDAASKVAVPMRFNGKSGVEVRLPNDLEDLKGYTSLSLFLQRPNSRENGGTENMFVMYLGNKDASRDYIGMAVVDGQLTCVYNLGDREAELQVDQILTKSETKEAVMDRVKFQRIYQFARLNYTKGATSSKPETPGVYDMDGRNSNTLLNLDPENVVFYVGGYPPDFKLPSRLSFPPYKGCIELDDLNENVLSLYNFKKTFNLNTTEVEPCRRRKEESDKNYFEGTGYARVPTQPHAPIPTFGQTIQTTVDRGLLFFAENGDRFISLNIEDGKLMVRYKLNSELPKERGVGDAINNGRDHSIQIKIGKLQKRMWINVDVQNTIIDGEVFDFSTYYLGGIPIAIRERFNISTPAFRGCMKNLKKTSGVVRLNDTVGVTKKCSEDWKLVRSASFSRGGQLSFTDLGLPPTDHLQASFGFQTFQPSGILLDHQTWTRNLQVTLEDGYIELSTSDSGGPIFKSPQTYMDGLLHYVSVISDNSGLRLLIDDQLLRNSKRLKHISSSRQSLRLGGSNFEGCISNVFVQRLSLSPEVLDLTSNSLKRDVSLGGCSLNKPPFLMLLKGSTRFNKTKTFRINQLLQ

- % adherent cells, 51Cr-labelled HFK on epiligrin-ECM^t, 4°C, 0 min: 30%
- % adherent cells, 51Cr-labelled HFK on epiligrin-ECM^t, 4°C, 2 min: 28%
- % adherent cells, 51Cr-labelled HFK on epiligrin-ECM^t, 4°C, 5 min: 28%
- % adherent cells, 51Cr-labelled HFK on epiligrin-ECM^t, 4°C, 10 min: 25%
- % adherent cells, 51Cr-labelled HFK on epiligrin-ECM^t, 4°C, 15 min: 37%
- % adherent cells, 51Cr-labelled HFK on epiligrin-ECM^t, 4°C, 25 min: 35%
- % adherent cells, 51Cr-labelled HFK on epiligrin-ECM^t, 4°C, 30 min: 31%
- % adherent cells, 51Cr-labelled HFK on epiligrin-ECM^t, 4°C, 45 min: 30%
- % adherent cells, 51Cr-labelled HFK on epiligrin-ECM^t, 4°C, 60 min: 35%
- % adherent cells, 51Cr-labelled HFK on epiligrin-ECM^t, 37°C, 0 min: 0%
- % adherent cells, 51Cr-labelled HFK on epiligrin-ECM^t, 37°C, 2 min: 10%
- % adherent cells, 51Cr-labelled HFK on epiligrin-ECM^t, 37°C, 5 min: 10%
- % adherent cells, 51Cr-labelled HFK on epiligrin-ECM^t, 37°C, 10 min: 20%
- % adherent cells, 51Cr-labelled HFK on epiligrin-ECM^t, 37°C, 15 min: 26%
- % adherent cells, 51Cr-labelled HFK on epiligrin-ECM^t, 37°C, 25 min: 36%
- % adherent cells, 51Cr-labelled HFK on epiligrin-ECM^t, 37°C, 30 min: 38%
- % adherent cells, 51Cr-labelled HFK on epiligrin-ECM^t, 37°C, 45 min: 50%
- % adherent cells, 51Cr-labelled HFK on epiligrin-ECM^t, 37°C, 60 min: 60%
Substance: integrin α6β4, P23229 24-1130; P16144 28-1822
